Here are results for two molecules from patent US20250026836A1 (UCB, published 2025).

The target of experiment [1] is T1, HLA-G naturally expressed on human choriocarcinoma trophoblastic JEG3 cells (human, UniProt P17693 25-338; P61769 21-119).
T1 construct: whole, on cells; also called JEG3 WT
Nature of the experiment: flow cytometry, blocking of ILT2rbFc binding to JEG3 cells. For orientation: In flow cytometry, cells or beads pass a laser one at a time.

In experiment [2] the target is human HLA-G and β2 microglobulin stably expressed on the HLAG-β2m-Reh cell line (human, UniProt P17693 25-338; P61769 21-119). Nature of the experiment: cell-based or functional assay.
In experiment [3] the target is T1, HLA-G naturally expressed on human …. The experiment in a line: flow cytometry, blocking of ILT2rbFc binding to JEG3 cells, large volume.
Experiment [4] has the same target. Nature of the experiment: flow cytometry on JEG3 cells, 1.5 ml IgG solution, geometric mean of three independent assays; geometric mean of three independent assays.
Experiment [5] concerns the target T2, HLA-G wild type, membrane-bound, co-expressed with B2m on transfected cells (HEK293 / HCT116) (human, UniProt P17693 25-338; P61769 21-119).
T2 construct: Same construct transiently expressed on HEK293 (Expi293) or HCT116 cells; the cell line is named under assay; also called HLA-G WT; HEK-HLAG
Nature of the experiment: flow cytometry, blocking of ILT2rbFc binding to HLA-G/B2m HEK293 cells.

Experiment [6] concerns the target HLA-A consensus sequence, co-expressed with B2m on HEK293 cells (human, UniProt P04439 25-365; P61769 21-119). The experiment in a line: flow cytometry on HEK293 cells transfected with HLA-A consensus/B2m.
Experiment [7] deals with T1, HLA-G naturally expressed on human …. The experiment in a line: flow cytometry on JEG3 WT cells, IgG1 100-0.05 nM.
For experiment [8], the target named is HLA-B consensus sequence, co-expressed with B2m on HEK293 cells (human, UniProt P01889 25-362 at identity 0.96); P61769 21-119). Nature of the experiment: flow cytometry on HEK293 cells transfected with HLA-B consensus/B2m.
In experiment [9] the target is HLA-F consensus sequence, co-expressed with B2m on HEK293 cells (human, UniProt P30511 22-346; P61769 21-119). Nature of the experiment: flow cytometry on HEK293 cells transfected with HLA-F consensus/B2m.
Experiment [10] concerns the target T2, HLA-G wild type, membrane-bound, …. Nature of the experiment: flow cytometry, blocking of ILT4rbFc binding to HLA-G/B2m HCT116 cells.
The target is the same in experiment [11]. Nature of the experiment: flow cytometry on HEK293 cells transfected with HLA-G/B2m.
In experiment [12] the target is HLA-C consensus sequence, co-expressed with B2m on HEK293 cells (human, UniProt P10321 25-366; P61769 21-119). Nature of the experiment: flow cytometry on HEK293 cells transfected with HLA-C consensus/B2m.
Experiment [13] addresses HLA-E consensus sequence, co-expressed with B2m on HEK293 cells (human, UniProt P13747 22-358; P61769 21-119). The experiment in a line: flow cytometry on HEK293 cells transfected with HLA-E consensus/B2m.
Experiment [14] has as its target T3, Human HLA-G ECD + B2m (soluble, AVItev10His tag) (human).
T3 construct: also called soluble HLA-G
Nature of the experiment: SPR, 25 C, hIgG1 captured via anti-human Fc, HLA-G ECD+B2m titrated from 50 nM, another assay. A general note: Surface plasmon resonance follows binding to a sensor surface in real time, without labels.

Experiment [15] addresses T3, Human HLA-G ECD + B2m (soluble, …). The experiment in a line: SPR, 25 C, hIgG1 captured via anti-human Fc, HLA-G ECD+B2m titrated from 50 nM.
For experiment [16] the target is unchanged. Nature of the experiment: SPR, 25 C, hIgG1 captured via anti-human Fc, HLA-G ECD+B2m 50 nM as analyte, second experiment.
Experiment [17] has the same target. The experiment in a line: SPR, 25 C, hIgG1 captured via anti-human Fc, HLA-G ECD+B2m 50 nM as analyte, first experiment.
The target in experiment [18] is T1, HLA-G naturally expressed on human …. The experiment in a line: flow cytometry on JEG3 cells, 1.5 ml IgG1 solution, 10-0.0005 nM.

B1: Afucosylated HLA-G02 (antibody, human IgG1, kappa)
heavy: not shown
light: AIVLTQSPSSLSASVGDRVTITCQASQSIYSYLSWYQQKPGKAPKLLIYKASTLASGVPSRFSGSGSGTDFTLTISSLQPEDFATYYCQNHWNVGGNGWPFGGGTKVEIKRTVAAPSVFIFPPSDEQLKSGTASVVCLLNNFYPREAKVQWKVDNALQSGNSQESVTEQDSKDSTYSLSSTLTLSKADYEKHKVYACEVTHQGLSSPVTKSFNRGEC
modifications: afucosylated IgG1 (produced in FUT8 knock-out CHO-SXE cells)
notes: also called aF HLA-G02; Afucosylated HLA-02
The IC50 is the point on the concentration scale where inhibition reaches its midpoint. Broadly, the EC50 is the concentration needed to bring the measured effect to its halfway point. Low values mean a more potent agent, high ones a less potent agent. In general, Kd refers to the concentration at which binding is half-saturated. On to B1, for which the IC50 turned out to be 0.51 nM in experiment [1], 0.021 nM in [3], 0.83 nM in experiment [5] and 1.38 nM in experiment [10]. Further, in [2], the “EC50 (nM) of CDC, lot 1” value was 2.51 nM. In addition, the “EC50 (nM) of CDC, lot 2” value in [2] turned out to be 3.29 nM. Moreover, the “EC50 (nM) of CDC, lot 3” value in experiment [2] came to 3.7 nM. The EC50 in experiment [4] is 0.021 nM; in [7] it was 0.2 nM; in experiment [11], 0.92 nM. Further, the binding result in experiment [6], in experiment [8], in experiment [9], in experiment [12] and in experiment [13] was “no binding (tested: IgG up to 100 nM)” each time. Further, the Kd in [14] worked out at 4.4 nM.

B2: HLA-G02 (humanised VR12389gL2gH16 IgG1, conventional i.e. fucosylated) (antibody)
heavy: not shown
light: B1 light
notes: also called conventional HLA-G02
As to B2, the results for the IC50 in experiment [1], in experiment [5] and in experiment [10] were 0.53 nM, 1.37 nM and 1.31 nM, respectively. For the same molecule, the Kd in experiment [15] turned out to be 5.09 nM; in experiment [16] it was 5.42 nM; in experiment [17], 4.78 nM; in [14], 4.3 nM; in [18], 0.02 nM. In addition, the binding result in experiment [6], in experiment [8], in experiment [9], in experiment [12] and in [13] was “no binding (tested: IgG up to 100 nM)” each time. In addition, the EC50 in experiment [7] stood at 0.43 nM; in experiment [11], 1.65 nM.
